Tests used:
[1] = target: T1, SARS-CoV-2 Spike receptor binding domain (RBD), wild type, His-tagged (SARS-CoV-2, UniProt P0DTC2); experiment: crystal structure; settings: both partners purified
T1 construct: also called WT RBD; BEI NR52309

[2] = target: T1, SARS-CoV-2 Spike receptor binding …; experiment: BLI; settings: both partners purified
[3] = target: T1, SARS-CoV-2 Spike receptor binding …
[4] = target: T1, SARS-CoV-2 Spike receptor binding …; experiment: cryo-EM structure; settings: both partners purified

| Binder | binding result [2] | Kd [3] [nM] | also measured |
| --- | --- | --- | --- |
| Fab 52 (Fab, V domains shown, also called 52 Fab) VH: QVQLVQSGAEVKKPGSSVKVSCKASGYTFTSYGISWVRQAPGQGLEWMGGIIPMFGTTNYAQKFQGRVTITADKSTSTAYMELSSLRSEDTAVYYCARDRGDTIDYWGQGTLVTVSS VL: DIQMTQSPSSLSASVGDRVTITCRASQGISNNLNWYQQKPGKAPKLLIYAASSLESGVPSRFSGSGSGTDFTLTISSLQPEDFATYYCQQGNGFPLTFGPGTKVDIK | – | – | binding result [1]: binds |
| mAb 52, full-length IgG (antibody, V domains shown, also called antibody 52) VH: QVQLVQSGAEVKKPGSSVKVSCKASGYTFTSYGISWVRQAPGQGLEWMGGIIPMFGTTNYAQKFQGRVTITADKSTSTAYMELSSLRSEDTAVYYCARDRGDTIDYWGQGTLVTVSS VL: DIQMTQSPSSLSASVGDRVTITCRASQGISNNLNWYQQKPGKAPKLLIYAASSLESGVPSRFSGSGSGTDFTLTISSLQPEDFATYYCQQGNGFPLTFGPGTKVDIK | binds | – | – |
| mAb 80, full-length IgG (antibody, V domains shown) VH: QVQLVQSGAEVKKPGSSVKVSCKASGGTFNRYAFSWVRQAPGQGLEWMGGIIPIFGTANYAQKFQGRVTITADESTSTAYMELSSLRSEDTAVYYCARSTRELPEVVDWYFDLWGRGTLVTVSS VL: not shown | binds | – | – |
| 349 (antibody, V domains shown) VH: EVQLLESGGGLVQPGGSLRLSCAASGFTFSNYGMHWVRQAPGKGLEWVSGISSAGSITNYADSVKGRFTISRDNSKNTLYLQMNSLRAEDTAVYYCAGNHAGTTVTSEYFQHWGQGTLVTVSS VL: DIQMTQSPSSLSASVGDRVTITCRASQSISSWLAWYQQKPGKAPKLLIYDTSNLETGVPSRFSGSGSGTDFTLTISSLQPEDFATYYCQQSYTTPWTFGQGTRLEIK | – | 74 | – |
| 160 (antibody, V domains shown) VH: QVQLVQSGAEVKKPGASVKVSCKASGYTFTGHDMHWVRQAPGQGLEWMGIINPSGGSTSYAQKFQGRVTMTRDTSTSTVYMELSSLRSEDTAVYYCARANSLRYYYGMDVWGQGTMVTVSS VL: DIQMTQSPSSLSASVGDRVTITCRASQSVSSWLAWYQQKPGKAPKLLIYAASSLQSGVPSRFSGSGSGTDFTLTISSLQPEDFATYYCQQGYTTPYTFGQGTKLEIK | – | 7.7 | – |
| 108 (antibody, V domains shown) VH: QVQLVQSGAEVKKPGASVKVSCKASGYIFSRYAIHWVRQAPGQGLEWMGWMNPISGNTDYAPNFQGRVTMTRDTSTSTVYMELSSLRSEDTAVYYCAKDGSQLAYLVEYFQHWGQGTLVTVSS VL: DIQMTQSPSSLSASVGDRVTITCRASQVITNNLAWYQQKPGKAPKLLIYDASTLETGVPSRFSGSGSGTDFTLTISSLQPEDFATYYCQQSYTFPYTFGQGTKVEIK | – | 72 | – |
| Fab 298 (Fab, V domains shown, also called 298 Fab) VH: QVQLVQSGAEVKKPGASVKVSCKASGGTFSTYGISWVRQAPGQGLEWMGWISPNSGGTDLAQKFQGRVTMTRDTSTSTVYMELSSLRSEDTAVYYCASDPRDDIAGGYWGQGTLVTVSS VL: not shown | – | – | binding result [1]: binds |
| mAb 298, full-length IgG (antibody, V domains shown, also called IgG 298; antibody 298) VH: QVQLVQSGAEVKKPGASVKVSCKASGGTFSTYGISWVRQAPGQGLEWMGWISPNSGGTDLAQKFQGRVTMTRDTSTSTVYMELSSLRSEDTAVYYCASDPRDDIAGGYWGQGTLVTVSS VL: not shown | binds | – | – |
| mAb 236, full-length IgG (antibody, V domains shown) VH: QVQLVQSGAEVKKPGASVKVSCKASGGTFTSYGINWVRQAPGQGLEWMGWMNPNSGNTGYAQKFQGRVTMTRDTSTSTVYMELSSLRSEDTAVYYCASRGIQLLPRGMDVWGQGTTVTVSS VL: not shown | binds | – | – |
| 178 (antibody, V domains shown) VH: QVQLVQSGAEVKKPGASVKVSCKASGYTFTDYHMHWVRQAPGQGLEWMGWINPNSGGTNYAQKFQGRVTMTRDTSTSTVYMELSSLRSEDTAVYYCARDISSWYEITKFDPWGQGTLVTVSS VL: EIVMTQSPATLSVSPGERATLSCKASQSVSGTYLAWYQQKPGQAPRLLIYGASTRATGIPARFSGSGSGTEFTLTISSLQSEDFAVYYCLQTHSYPPTFGQGTKVEIK | – | 72 | – |
| 254 (antibody, V domains shown) VH: EVQLLESGGGLVQPGGSLRLSCAASGFTFSSSAMHWVRQAPGKGLEWVSAIGTGGDTYYADSVKGRFTISRDNSKNTLYLQMNSLRAEDTAVYYCAREGDGYNFYFDYWGQGTLVTVSS VL: DIQMTQSPSSLSASVGDRVTITCRASQGISSYLAWYQQKPGKAPKLLIYDASSLQIGVPSRFSGSGSGTDFTLTISSLQPEDFATYYCLQSYSTPPWTFGQGTKVEIK | – | 127 | – |
| 56 (antibody, V domains shown) VH: QVQLVQSGAEVKKPGASVKVSCKASGYTFTSYGISWVRQAPGQGLEWMGWISAYNGNTNYAQKLQGRVTMTRDTSTSTVYMELSSLRSEDTAVYYCARDIGPIDYWGQGTLVTVSS VL: DIQMTQSPSSLSASVGDRVTITCRASQGISSYLAWYQQKPGKAPKLLIYDASNLQSGVPSRFSGSGSGTDFTLTISSLQPEDFATYYCQQANSFPSTFGQGTKVEIK | – | 23 | – |
| mAb 82, full-length IgG (antibody, V domains shown) VH: QVQLVQSGAEVKKPGASVKVSCKASGGSFSTSAFYWVRQAPGQGLEWMGWINPYTGGTNYAQKFQGRVTMTRDTSTSTVYMELSSLRSEDTAVYYCARSRALYGSGSYFDYWGQGTLVTVSS VL: DIQMTQSPSSLSASVGDRVTITCRASQVISNYLAWYQQKPGKAPKLLIYDASNLETGVPSRFSGSGSGTDFTLTISSLQPEDFATYYCQQSFSPPPTFGQGTRLEIK | binds | – | – |
| 158 (antibody, V domains shown) VH: QVQLVQSGAEVKKPGASVKVSCKASGYTFTGYYMHWVRQAPGQGLEWMGWINPLNGGTNFAPKFQGRVTMTRDTSTSTVYMELSSLRSEDTAVYYCARDPGGSYSNDAFDIWGQGTLVTVSS VL: DIQMTQSPSSLSASVGDRVTITCRASQSISRYLNWYQQKPGKAPKLLIYDASNLESGVPSRFSGSGSGTDFTLTISSLQPEDFATYYCQQANSFPLTFGGGTKVDIK | – | 172 | – |
| mAb 46, full-length IgG (antibody, V domains shown, also called antibody 46) VH: EVQLLESGGGLVQPGRSLRLSCAASGFTFSSYAMSWVRQAPGKGLEWVSTIYSGGSTYYADSVKGRFTISRDNSKNTLYLQMNSLRAEDTAVYYCARGDSRDAFDIWGQGTMVTVSS VL: DIQMTQSPSSLSASVGDRVTITCRASQSISSWLAWYQQKPGKAPKLLIYDASNLETGVPSRFSGSGSGTDFTLTISSLQPEDFATYYCQQSYSTPFTFGPGTKVDIK | binds | – | – |
| Fab 46 (Fab, V domains shown) VH: EVQLLESGGGLVQPGRSLRLSCAASGFTFSSYAMSWVRQAPGKGLEWVSTIYSGGSTYYADSVKGRFTISRDNSKNTLYLQMNSLRAEDTAVYYCARGDSRDAFDIWGQGTMVTVSS VL: DIQMTQSPSSLSASVGDRVTITCRASQSISSWLAWYQQKPGKAPKLLIYDASNLETGVPSRFSGSGSGTDFTLTISSLQPEDFATYYCQQSYSTPFTFGPGTKVDIK | – | – | binding result [4]: binds |
| 64 (antibody, V domains shown) VH: EVQLLESGGGLVQPGGSLRLSCAASGFPFSQHGMHWVRQAPGKGLEWVSAIDRSGSYIYYADSVKGRFTISRDNSKNTLYLQMNSLRAEDTAVYYCARDTYGGKVTYFDYWGQGTLVTVSS VL: DIQMTQSPSSLSASVGDRVTITCRASQGISSHLAWYQQKPGKAPKLLIYDASNLETGVPSRFSGSGSGTDFTLTISSLQPEDFATYYCQQTYSTPWTFGQGTKVEIK | – | 97 | – |
| mAb 324, full-length IgG (antibody, V domains shown) VH: QVQLVQSGAEVKKPGASVKVSCKASGGTFNNYGISWVRQAPGQGLEWMGWMNPNSGNTGYAQKFQGRVTMTRDTSTSTVYMELSSLRSEDTAVYYCARVGDYGDYIVSPFDLWGRGTLVTVSS VL: DIQMTQSPSSLSASVGDRVTITCRASQSITTYLNWYQQKPGKAPKLLIYDASNLETGVPSRFSGSGSGTDFTLTISSLQPEDFATYYCQQSYSTPPTFGQGTKVEIK | binds | – | – |
| 128 (antibody, V domains shown) VH: QVQLVQSGAEVKKPGASVKVSCKASGYTFTHYYMHWVRQAPGQGLEWMGIINPSSSSASYSQKFQGRVTMTRDTSTSTVYMELSSLRSEDTAVYYCARDGRYGSGSYPFDYWGQGTLVTVSS VL: DIQMTQSPSSLSASVGDRVTITCRASQNISRYLNWYQQKPGKAPKLLIYDASNLETGVPSRFSGSGSGTDFTLTISSLQPEDFATYYCQQANGFPPTFGQGTKLEIK | – | 57 | – |
| 120 (antibody, V domains shown) VH: QVQLVQSGAEVKKPGASVKVSCKASGYTFTSYDINWVRQAPGQGLEWMGMIDPSGGSTSYAQKFQGRVTMTRDTSTSTVYMELSSLRSEDTAVYYCAKDFGGGTRYDYWYFDLWGRGTLVTVSS VL: EIVMTQSPATLSVSPGERATLSCRASQSVSSRYLAWYQQKPGQAPRLLIYGASTRATGIPARFSGSGSGTEFTLTISSLQSEDFAVYYCQQYYTTPRTFGQGTRLEIK | – | 24 | – |

From publication PMC8209050 (Nature Communications, 2021)
